For one series, the target named is T1, AaOSBS (Alicyclobacillus acidocaldarius, UniProt Z9M799VK71).
T1 sequence (Z9M799VK71 4-380): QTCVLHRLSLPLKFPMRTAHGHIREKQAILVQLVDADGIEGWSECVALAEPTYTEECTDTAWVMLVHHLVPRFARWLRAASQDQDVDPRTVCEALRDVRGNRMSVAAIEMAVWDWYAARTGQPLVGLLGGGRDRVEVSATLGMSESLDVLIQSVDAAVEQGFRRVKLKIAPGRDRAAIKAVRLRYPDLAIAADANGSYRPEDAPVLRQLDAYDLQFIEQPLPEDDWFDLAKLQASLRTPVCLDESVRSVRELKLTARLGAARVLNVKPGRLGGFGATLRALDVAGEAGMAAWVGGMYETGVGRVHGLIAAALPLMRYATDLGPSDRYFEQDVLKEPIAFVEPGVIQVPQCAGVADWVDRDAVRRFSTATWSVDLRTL
Put plainly: inhibition of OSBS activity, SHCHC loss at […] nm. The class given is biochemical.

The test system of series [1] is O=C(O)CCC(=O)C1=CC=C[C@@H](O)[C@@H]1C(=O)O. Put plainly: purified protein. Type of series: biochemical, Alicyclobacillus acidocaldarius. The note with it: 50 mM Tris pH 8.0, 0.1 mM MnCl2, 25 °C.
Substrate in series [2]: O=C(O)CCC(=O)C1=CC=C[C@@H](O)[C@@H]1C(=O)O
Put plainly: purified protein. Type of series: biochemical, Amycolatopsis mediterranei. The note with it: 50 mM Tris pH 8.0, 0.1 mM MnCl2, 25 °C.

Substrate in series [3]: O=C(O)CCC(=O)N[C@@H](C(=O)O)c1ccccc1
Put plainly: purified protein. Type of series: biochemical, Amycolatopsis mediterranei. The settings on record: 200 mM Tris pH 8.0, 0.1 mM MnCl2.

Substrate in series [4]: O=C(O)CCC(=O)C1=CC=C[C@@H](O)[C@@H]1C(=O)O
Put plainly: purified protein. The class given is biochemical, Roseiflexus castenholzii. The settings on record: 50 mM Tris pH 8.0, 0.1 mM MnCl2, 25 °C.

Substrate in series [5]: O=C(O)CCC(=O)N[C@@H](C(=O)O)c1ccccc1
Put plainly: purified protein. Type of series: biochemical, Roseiflexus castenholzii. The note with it: 200 mM Tris pH 8.0, 0.1 mM MnCl2.

Molecule `O=C(O)CCC(=O)N[C@@H](C(=O)O)c1ccccc1` [D-NSPG, N-succinyl-D-phenylglycine] gave a Ki at AaOSBS of 3.6 ± 0.4 mM.
With “AaOSBS (Alicyclobacillus acidocaldarius)”, in series [1], the Km worked out at 118 ± 18 µM, the kcat was 64 ± 3 s⁻¹ and the kcat/Km turned out to be 540000 M⁻¹ s⁻¹.
For `O=C(O)CCC(=O)N[C@H](C(=O)O)c1ccccc1` [L-NSPG, N-succinyl-L-phenylglycine], the affinity on AaOSBS, expressed as Ki, was 2.6 ± 0.4 mM.

B1: AmedNSAR (Amycolatopsis mediterranei S699) (protein)
chain: MKLTGVELLRVRMPLVAPFRTSFGTQAERELLLLRAVTSEGEGWGECGAMAGPLYSAEYIDGVEHVLQAFLVPALLAAGDLTAHKVAPLLAKFKGHRMAKAALEMAVLDAELRAHGLSFGTALGSTSDSVPCGVSVGIMDSIPQLVDVVGGYLDAGYLRIKLKIEPGWDVEPVRAVRERFGDDILLQVDANTAYTLSDVPQLQRLDPFGLLLIEQPLEEEDVLGHAELARHLRTPICLDETVVSAASAAAAIRLGACRIVNIKPSRVGGYLEARRVHDVCAAHGIPVWCGGMLETGLGRAANVALASLPGFTLPGDTSASDRFYRTDITEPFVLEAGRLPVPSGPGLGVTPIPERLAEVTTAKSWLA
On to B1, for which, in the series “purified protein [2]”, the Michaelis constant (Km) is 415 ± 39 µM, the kcat was 242 ± 11 s⁻¹ and the kcat/Km came to 580000 M⁻¹ s⁻¹. Besides, in the series “purified protein [3]”, the Michaelis-Menten constant (Km) was determined as 2800 ± 550 µM, the kcat was 74 ± 7 s⁻¹ and the specificity constant (kcat/Km) worked out at 26000 M⁻¹ s⁻¹.

B2: RcNSAR/OSBS (Roseiflexus castenholzii DSM 13941) (protein)
chain: MKIESITLHHIDMPLVAPFETSFGRETHRPCILIEMRADGLTGWGECVAGAGPWYAYETIGTAWHIISDFLAPMIVGQEITEPIGIVERFASVRGHPMARAAVEAAFWDLYAQARGVSLARLIGATRDRVTVGVSVGIELTLEAQLASIERFVAAGYARIKLKIKPGWDVAVVRAVRERWPDIALQVDANSAYTPDDAPIFRELDEMNLLLIEQPLHHDDIVDHARLQAQISTPICLDESIHSPEHARWALDIDACRVINIKIGRVGGLTAARQIHDLCAERGVPVWCGGMLETNVGRAVNLALAALPNFALPGDISASARYYHRDIAAPDFVLNDDSTITVPDTPGTGVAVLPERLRDVQVREVIIGKG
B2: in the series “purified protein [4]”, the Michaelis constant (Km) was determined as 155 ± 22 µM, the turnover number (kcat) stood at 38 ± 3 s⁻¹ and the catalytic efficiency (kcat/Km) was 250000 M⁻¹ s⁻¹. Besides, in “purified protein [5]”, the Michaelis constant (Km) is 1800 ± 230 µM, the kcat turned out to be 15 ± 4 s⁻¹ and the kcat/Km was 8300 M⁻¹ s⁻¹.

Values taken from PMC7187728 (Biochemistry, 2018).
